Source: paper doi:10.1101/521658 (bioRxiv, 2019)

Biological target: T1, 6HIS-Δ38NADKc-1, refolded (A. thaliana, UniProt Q0WUY1 39-534)
T1 sequence (looked up): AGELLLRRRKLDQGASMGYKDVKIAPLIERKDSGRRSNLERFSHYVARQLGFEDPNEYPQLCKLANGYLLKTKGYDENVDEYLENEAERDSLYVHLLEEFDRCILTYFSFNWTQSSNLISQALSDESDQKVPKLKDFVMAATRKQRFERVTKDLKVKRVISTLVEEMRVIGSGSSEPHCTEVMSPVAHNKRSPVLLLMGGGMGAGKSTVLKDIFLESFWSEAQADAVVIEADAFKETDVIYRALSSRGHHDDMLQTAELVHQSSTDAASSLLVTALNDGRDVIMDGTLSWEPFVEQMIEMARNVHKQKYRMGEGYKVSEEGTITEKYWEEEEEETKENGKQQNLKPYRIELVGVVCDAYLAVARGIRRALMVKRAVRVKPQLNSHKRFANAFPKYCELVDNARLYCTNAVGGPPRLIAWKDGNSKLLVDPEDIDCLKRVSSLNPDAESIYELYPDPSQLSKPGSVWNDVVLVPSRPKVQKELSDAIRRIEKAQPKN
Experiment: enzyme activity titration

Kd: 0.6 to 1 nM
B1: A. thaliana (At) CaM1 (natural protein)
chain: not shown
